Source: article PMC11167270 (Heliyon, 2024)
Changes are numbered by the printed parent chain. In names and notes the source's numbering stands. One block for each molecule: values may come before it.

Key:
[1] = molecular target: Sac10b2 (Sulfolobus acidocaldarius); test: AUC
AUC = molecular target: the molecule itself; test: AUC

stoichiometry N [1]: 2
Molecule: Sac10b2 (natural protein)

B1: Sac10b1 (natural protein, Sulfolobus acidocaldarius)
chain: MSSGATPSNVVLVGKKPVMNYVLAALTLLNQGVSEITIKARGRAISKAVDTVEIVRNRFLPDKIEVKEIRIGSQVVTSQDGRQSRVSTIEIGIRKKA
stoichiometry N (AUC): 2

B2: Sac10b1 R58A (natural protein, Sulfolobus acidocaldarius)
chain: B1 chain with R58A
binding result (AUC): binds

B3: Sac10b1 F59A (natural protein, Sulfolobus acidocaldarius)
chain: B1 chain with F59A
stoichiometry N (AUC): 2
